A word on the IC50: it is the concentration needed to halve the response being measured.

This assay has as its target T1, purified PSD (Homo sapiens, UniProt Q9UG56).
T1 construct: Purified recombinant protein (full length) of human phosphatidylserine decarboxylase (PSD); His tag (N); purchased Acris-OriGene; host or cells: E. coli
T1 sequence (Q9UG56 53-409): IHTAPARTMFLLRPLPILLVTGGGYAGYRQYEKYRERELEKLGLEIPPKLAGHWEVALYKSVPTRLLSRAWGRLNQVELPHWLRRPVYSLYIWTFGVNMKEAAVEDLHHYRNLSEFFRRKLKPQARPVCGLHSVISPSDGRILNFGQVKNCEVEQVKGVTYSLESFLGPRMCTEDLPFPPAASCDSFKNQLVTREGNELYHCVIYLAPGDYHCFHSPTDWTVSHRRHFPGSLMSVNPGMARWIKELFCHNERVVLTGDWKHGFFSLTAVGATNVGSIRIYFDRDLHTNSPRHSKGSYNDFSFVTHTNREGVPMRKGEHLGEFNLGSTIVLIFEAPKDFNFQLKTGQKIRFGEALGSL
Briefly: PSD activity, DSB‐3 method. It is filed as biochemical. Particulars: PS 50 μM, 45 min, 30 °C, n = 4, read-out: IC50, SMAC‐inhibiting PSD activity. How it is done:
PE content in the lipid samples was measured as described previously. Briefly, solvent was evaporated from the lipid samples under nitrogen gas, and samples were resuspended in 0.8 mM Triton X‐100. Sample aliquots were added to 96‐well plates containing (50 µL) reaction mixture (80 mM NaCl, 2 mM K2HPO4, pH 7.4) and of borate buffer (12.5 µL) (100 mM boric acid, 75 mM NaCl, 25 mM sodium tetraborate, pH 9). After mixing, 12.5 µL of 100 µM DSB‐3, in 10 mM K2HPO4 (pH 7.4), was then added and incubated for 2 h in the dark with shaking (100 r.p.m.). Fluorescence was measured using excitation λex = 403 nm and emission λem = 508 nm. A calibration curve was obtained using PE (Biovision) as a standard.
To determine PSD activity, purified enzyme (0.2–0.4 μM) or crude cell lysate (0.25–0.5 μg of protein) was incubated with PS (50 μM) for 45 min at 30 °C in the dark with shaking under the conditions described above for PE determination. PSD activity was measured by determining the PE produced as described above, except that the signal obtained in the absence of substrate PS (representing endogenous PE) was subtracted from the signal obtained in the presence of PS.
Human recombinant SMAC (10339‐H08E) was produced by Sino Biologicals (Wayne, PA, USA). […]

B1: SMAC: Human recombinant SMAC (10339‐H08E) produced by Sino Biologicals (protein)
chain: LCVPVVANFKKRCFSELIRPWHKTVTIGFGVTLCAVPIAQKSEPHSLSSEALMRRAVSLVTDSTSTFLSQTTYALIEAITEYTKAVYTLTSLYRQYTSLLGKMNSEEEDEVWQVIIGARAEMTSKHQEYLKLETTWMTAVGLSEMAAEAAYQTGADQASITARNHIQLVKLQVEEVHQLSRKAETKLAEAQIEELRQKTQEEGEERAESEQEAYLRED
modifications: fluorescently labelled with the NanoTemper Protein labelling kit BLUE (in the MST with PSD only)
notes: Human recombinant SMAC (10339‐H08E) produced by Sino Biologicals
Consider B1, for which the concentration for half-maximal inhibition (IC50) was 0.4 µM.

For the origin of these results see article PMC8564633, “SMAC/Diablo controls proliferation of cancer cells by regulating phosphatidylethanolamine synthesis” (Molecular Oncology, 2021).
